Data reported in paper PMC8286830 (Biochemical Journal, 2021).
Like-named read-outs stand apart in the source and are kept apart here.

B1: C-terminal domain of TgCEN1 (C-TgCEN1, 95–169 aa) (domain or fragment)
chain: not shown

Experiments:
[1] = biological target: T1, truncated variant of TgCEN1 lacking the first 21 residues (Δ21TgCEN1, 22–169) (Toxoplasma gondii, UniProt A0A125YHX7 22-169); experiment: ITC
T1 sequence (looked up): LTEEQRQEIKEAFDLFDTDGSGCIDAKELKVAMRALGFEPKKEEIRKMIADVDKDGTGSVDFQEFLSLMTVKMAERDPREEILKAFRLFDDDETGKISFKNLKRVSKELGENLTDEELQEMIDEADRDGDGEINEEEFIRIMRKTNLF

[2] = biological target: B1; experiment: ITC
[3] = biological target: T1, truncated variant of TgCEN1 lacking the …; experiment: ITC; remark: listed apart in the source
[4] = biological target: T2, N-terminal domain of TgCEN1 lacking the first 21 residues (Δ21N-TgCEN1, 22–94 aa) (Toxoplasma gondii, UniProt A0A125YHX7 22-94); experiment: ITC
T2 sequence (looked up): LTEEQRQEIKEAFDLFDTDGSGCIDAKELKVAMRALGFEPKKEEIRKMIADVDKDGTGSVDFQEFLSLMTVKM

[5] = biological target: B1; experiment: ITC; remark: listed apart in the source
dynamic light scattering [6] = biological target: the molecule itself; experiment: dynamic light scattering
dynamic light scattering [7] = biological target: the molecule itself; experiment: dynamic light scattering; remark: listed apart in the source

## NWKLLAKGLLIRERLKR [P17-XPC peptide (17-residue peptide of the human xeroderma pigmentosum group C protein, N847-R863)]
[1]
  Kd: 59.1 nM
  dH: -31.5 kcal/mol
  stoichiometry N: 0.9
[2]
  Kd: 50.1 nM
  dH: -28.4 kcal/mol
  stoichiometry N: 0.8
[3]
  dH of site 1 (high-affinity site, two-site model): -23.8 kcal/mol
  dH of site 2 (low-affinity site, two-site model): -12.1 kcal/mol
[4]
  Kd: 396 nM
  dH: -17.7 kcal/mol
  stoichiometry N: 0.7
[5]
  Kd: 6.7 nM
  dH: -22.9 kcal/mol
  stoichiometry N: 0.8

## B1
Dynamic light scattering [6]
  binding result: binds

B2: N-terminal domain of TgCEN1 (N-TgCEN1, 1–94 aa) (domain or fragment, Toxoplasma gondii, UniProt A0A125YHX7 1-94, looked up)
chain: MHSRKGASSLPRGRGAGKKTELTEEQRQEIKEAFDLFDTDGSGCIDAKELKVAMRALGFEPKKEEIRKMIADVDKDGTGSVDFQEFLSLMTVKM
Dynamic light scattering [7]
  binding result: binds
